The values below come from publication PMC3921674 (2014).

For assay [1], the target named is WDR5 F266A (isothermal calorimetry) (UniProt P61964 1-334, F266A). The assay is described as follows: ITC. For orientation: Isothermal titration calorimetry measures the heat released or taken up as one component is titrated into another.
The target of assay [2] is WDR5 (wild type, isothermal calorimetry) (UniProt P61964 1-334). The assay is described as follows: ITC.

Usually Kd stands for a measure of binding affinity in units of concentration. Low readings indicate higher affinity, high ones lower affinity. As to ARTKQTARKS [H3(1-10)], the Kd amounted to 34.7 µM in assay [1] and 31.1 µM in assay [2].
For GSARAEVHLRKSAFDMFNFLASKHRQPPEYNPNDEEEEEVQ [MLL1(3762-3802)] the same measures were 0.6 µM and 0.97 µM.
